Assay results as given in the supplement of paper PMC10065799, “High-throughput profiling of sequence recognition by tyrosine kinases and SH2 domains using bacterial peptide display” (eLife, 2023).

Columns and labels:
AncSZ = assay: phosphorylation enrichment, bacterial display (enrichment ratio); higher = better substrate or ligand; peptides without Tyr show the background
EPHB1 = EPHB1 (UniProt P54762); assay: as above
EPHB2 = EPHB2 (UniProt P29323); assay: as above
FGFR1 = FGFR1 (UniProt P11362); assay: as above
FGFR3 = FGFR3 (UniProt P22607); assay: as above
Fer (mouse) = assay: as above
Fes = Fes (UniProt P07332); assay: as above
Fyn = Fyn (UniProt P06241); assay: as above
Hck = Hck (UniProt P08631); assay: as above
Jak2 = Jak2 (UniProt O60674); assay: as above
MERTK = MERTK (UniProt Q12866); assay: as above
c-Abl (mouse) = assay: as above
c-Src = assay: as above
Grb2 SH2 = Grb2 SH2 (UniProt P62993); assay: SH2 binding enrichment of the phosphorylated peptide, bacterial display (enrichment ratio); higher = better substrate or ligand; peptides without Tyr show the background
SHP2-C SH2 = assay: as above
c-Src SH2 = assay: as above
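Wherever SH2 binding enrichment of the phosphorylated peptide, bacterial display is given: peptide library displayed on the E. coli surface as eCPX fusions, selected cells deep-sequenced, score is each peptide's frequency after selection divided by its frequency in the input.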
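Wherever phosphorylation enrichment, bacterial display is given: 11-residue human phosphosite peptides and single-mutation variants displayed on the E. coli surface, counted by deep sequencing, each peptide's frequency after selection divided by its frequency in the unselected input library; frequency after pTyr selection over input frequency; kinase dosed for 20-30% of maximal phosphorylation in three min.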

Jak2, sequence (O60674 whole entry, looked up): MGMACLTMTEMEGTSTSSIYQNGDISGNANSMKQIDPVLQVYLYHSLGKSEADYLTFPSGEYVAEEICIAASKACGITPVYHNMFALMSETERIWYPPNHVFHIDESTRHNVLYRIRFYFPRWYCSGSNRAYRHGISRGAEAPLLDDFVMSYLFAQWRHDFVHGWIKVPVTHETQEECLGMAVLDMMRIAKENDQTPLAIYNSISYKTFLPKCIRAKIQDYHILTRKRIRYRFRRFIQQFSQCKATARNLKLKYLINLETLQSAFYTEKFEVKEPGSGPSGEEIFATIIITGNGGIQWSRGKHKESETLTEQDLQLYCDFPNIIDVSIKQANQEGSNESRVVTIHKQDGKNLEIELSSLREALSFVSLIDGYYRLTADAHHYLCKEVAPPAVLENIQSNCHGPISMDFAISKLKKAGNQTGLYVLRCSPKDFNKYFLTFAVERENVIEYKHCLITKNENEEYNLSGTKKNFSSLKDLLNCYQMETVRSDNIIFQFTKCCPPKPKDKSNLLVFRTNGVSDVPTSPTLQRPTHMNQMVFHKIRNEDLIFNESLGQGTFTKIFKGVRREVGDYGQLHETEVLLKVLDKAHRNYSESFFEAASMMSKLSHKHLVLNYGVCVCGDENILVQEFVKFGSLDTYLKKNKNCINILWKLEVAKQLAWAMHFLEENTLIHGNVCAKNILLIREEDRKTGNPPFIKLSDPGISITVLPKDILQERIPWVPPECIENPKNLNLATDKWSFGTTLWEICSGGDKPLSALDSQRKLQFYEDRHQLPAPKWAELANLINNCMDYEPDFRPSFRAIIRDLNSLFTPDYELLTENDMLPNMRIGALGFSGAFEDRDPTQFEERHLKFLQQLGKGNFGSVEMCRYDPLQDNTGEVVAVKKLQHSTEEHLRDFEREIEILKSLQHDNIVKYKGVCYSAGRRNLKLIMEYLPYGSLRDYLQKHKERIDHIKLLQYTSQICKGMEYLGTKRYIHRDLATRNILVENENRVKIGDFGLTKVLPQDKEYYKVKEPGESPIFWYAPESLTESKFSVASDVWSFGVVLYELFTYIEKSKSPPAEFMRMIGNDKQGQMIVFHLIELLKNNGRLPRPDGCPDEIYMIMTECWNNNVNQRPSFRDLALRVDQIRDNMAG
Fes, sequence (P07332 whole entry, looked up): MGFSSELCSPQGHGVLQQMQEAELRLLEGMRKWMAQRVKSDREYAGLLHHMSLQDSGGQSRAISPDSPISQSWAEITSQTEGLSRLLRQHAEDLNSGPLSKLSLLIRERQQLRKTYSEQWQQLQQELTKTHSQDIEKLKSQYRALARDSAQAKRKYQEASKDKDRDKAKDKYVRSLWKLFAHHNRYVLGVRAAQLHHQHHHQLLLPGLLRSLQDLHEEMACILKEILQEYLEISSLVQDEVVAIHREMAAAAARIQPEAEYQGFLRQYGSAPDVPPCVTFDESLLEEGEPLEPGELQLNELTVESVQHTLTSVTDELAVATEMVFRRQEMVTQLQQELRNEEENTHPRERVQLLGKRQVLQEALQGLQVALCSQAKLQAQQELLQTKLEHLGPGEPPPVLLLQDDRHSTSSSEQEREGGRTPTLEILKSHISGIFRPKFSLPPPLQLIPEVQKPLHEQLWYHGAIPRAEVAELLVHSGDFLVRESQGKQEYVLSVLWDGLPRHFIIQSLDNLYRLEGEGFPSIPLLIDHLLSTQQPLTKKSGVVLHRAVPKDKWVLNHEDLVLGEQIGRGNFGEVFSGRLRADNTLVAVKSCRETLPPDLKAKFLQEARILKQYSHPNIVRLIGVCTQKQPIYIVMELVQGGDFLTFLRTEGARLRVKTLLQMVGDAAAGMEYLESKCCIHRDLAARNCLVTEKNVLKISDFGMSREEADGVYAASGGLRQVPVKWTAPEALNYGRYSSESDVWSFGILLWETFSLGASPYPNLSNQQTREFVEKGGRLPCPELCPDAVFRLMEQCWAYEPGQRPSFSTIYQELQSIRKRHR
Hck, sequence (P08631 whole entry, looked up): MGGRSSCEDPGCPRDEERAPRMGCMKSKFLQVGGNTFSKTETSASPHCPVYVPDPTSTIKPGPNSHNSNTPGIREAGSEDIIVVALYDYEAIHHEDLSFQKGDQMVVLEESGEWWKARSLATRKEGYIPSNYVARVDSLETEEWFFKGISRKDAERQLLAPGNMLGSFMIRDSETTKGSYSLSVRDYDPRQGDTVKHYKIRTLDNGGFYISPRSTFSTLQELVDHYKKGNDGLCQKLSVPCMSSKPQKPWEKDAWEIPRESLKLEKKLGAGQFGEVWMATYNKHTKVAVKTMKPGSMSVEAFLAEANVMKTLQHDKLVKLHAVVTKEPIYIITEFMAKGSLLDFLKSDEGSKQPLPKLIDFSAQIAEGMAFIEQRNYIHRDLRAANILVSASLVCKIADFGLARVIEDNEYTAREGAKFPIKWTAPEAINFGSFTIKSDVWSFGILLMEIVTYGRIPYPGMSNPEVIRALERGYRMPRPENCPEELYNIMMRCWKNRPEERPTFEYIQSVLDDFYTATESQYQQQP
FGFR1, sequence (P11362 whole entry, looked up): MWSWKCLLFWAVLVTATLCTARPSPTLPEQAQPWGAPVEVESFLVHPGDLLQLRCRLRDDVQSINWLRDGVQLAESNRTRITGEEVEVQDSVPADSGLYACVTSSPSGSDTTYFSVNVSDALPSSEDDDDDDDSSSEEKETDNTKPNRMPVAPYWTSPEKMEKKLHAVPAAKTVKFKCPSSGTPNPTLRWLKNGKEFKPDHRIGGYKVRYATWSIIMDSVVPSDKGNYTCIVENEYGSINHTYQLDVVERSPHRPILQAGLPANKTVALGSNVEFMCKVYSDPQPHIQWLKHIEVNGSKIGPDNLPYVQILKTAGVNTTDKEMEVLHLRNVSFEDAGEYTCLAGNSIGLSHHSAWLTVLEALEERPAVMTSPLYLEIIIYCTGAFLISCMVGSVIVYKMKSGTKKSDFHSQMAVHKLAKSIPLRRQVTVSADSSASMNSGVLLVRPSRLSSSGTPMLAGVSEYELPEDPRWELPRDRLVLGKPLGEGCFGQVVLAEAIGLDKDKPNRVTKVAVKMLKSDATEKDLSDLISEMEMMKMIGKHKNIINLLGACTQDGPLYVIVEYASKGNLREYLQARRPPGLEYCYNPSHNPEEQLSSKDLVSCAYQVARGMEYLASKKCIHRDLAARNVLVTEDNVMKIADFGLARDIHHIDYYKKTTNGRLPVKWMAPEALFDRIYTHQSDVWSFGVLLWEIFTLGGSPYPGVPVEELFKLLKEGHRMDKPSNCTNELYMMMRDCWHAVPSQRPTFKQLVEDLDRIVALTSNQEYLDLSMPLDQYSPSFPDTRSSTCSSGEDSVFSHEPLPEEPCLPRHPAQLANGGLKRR
EPHB1, sequence (P54762 whole entry, looked up): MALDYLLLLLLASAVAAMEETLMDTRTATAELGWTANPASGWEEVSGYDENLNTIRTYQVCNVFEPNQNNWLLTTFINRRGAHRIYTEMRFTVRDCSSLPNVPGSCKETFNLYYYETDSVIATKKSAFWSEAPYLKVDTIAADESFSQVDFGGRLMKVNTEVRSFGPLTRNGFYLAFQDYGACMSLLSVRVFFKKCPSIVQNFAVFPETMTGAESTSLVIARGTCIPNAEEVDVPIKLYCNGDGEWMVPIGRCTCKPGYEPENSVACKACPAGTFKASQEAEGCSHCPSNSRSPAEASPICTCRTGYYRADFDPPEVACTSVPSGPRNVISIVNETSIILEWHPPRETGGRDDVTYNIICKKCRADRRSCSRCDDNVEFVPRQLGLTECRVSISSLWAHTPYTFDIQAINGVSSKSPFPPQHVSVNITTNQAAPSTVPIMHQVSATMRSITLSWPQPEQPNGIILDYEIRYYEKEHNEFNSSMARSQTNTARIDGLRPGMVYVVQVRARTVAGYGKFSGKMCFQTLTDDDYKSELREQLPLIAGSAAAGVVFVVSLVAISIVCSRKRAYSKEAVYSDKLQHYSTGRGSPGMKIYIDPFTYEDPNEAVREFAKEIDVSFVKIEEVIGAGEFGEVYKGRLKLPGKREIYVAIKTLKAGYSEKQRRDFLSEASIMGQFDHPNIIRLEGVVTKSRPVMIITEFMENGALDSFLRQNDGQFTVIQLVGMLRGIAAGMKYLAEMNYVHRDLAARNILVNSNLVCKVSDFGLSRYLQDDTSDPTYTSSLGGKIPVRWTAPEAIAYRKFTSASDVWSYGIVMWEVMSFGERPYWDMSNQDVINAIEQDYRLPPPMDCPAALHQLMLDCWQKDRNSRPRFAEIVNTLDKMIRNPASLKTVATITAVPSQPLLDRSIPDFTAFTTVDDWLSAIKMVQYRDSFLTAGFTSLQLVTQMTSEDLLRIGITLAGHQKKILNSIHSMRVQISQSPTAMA
Fyn, sequence (P06241 whole entry, looked up): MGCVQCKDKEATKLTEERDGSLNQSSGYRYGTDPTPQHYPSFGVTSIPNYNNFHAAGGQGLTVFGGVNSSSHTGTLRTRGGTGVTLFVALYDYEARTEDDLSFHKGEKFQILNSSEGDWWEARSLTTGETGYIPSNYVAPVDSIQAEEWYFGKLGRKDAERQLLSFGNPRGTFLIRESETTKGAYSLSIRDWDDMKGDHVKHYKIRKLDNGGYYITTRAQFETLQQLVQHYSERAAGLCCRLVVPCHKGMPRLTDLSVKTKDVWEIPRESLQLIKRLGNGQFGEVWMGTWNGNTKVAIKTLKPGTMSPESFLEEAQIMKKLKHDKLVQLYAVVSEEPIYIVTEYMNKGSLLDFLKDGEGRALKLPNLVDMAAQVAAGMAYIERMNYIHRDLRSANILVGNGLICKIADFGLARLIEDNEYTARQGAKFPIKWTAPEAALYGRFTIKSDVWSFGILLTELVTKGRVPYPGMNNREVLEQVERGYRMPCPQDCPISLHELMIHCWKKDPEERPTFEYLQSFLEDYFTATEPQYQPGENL
Grb2 SH2, sequence (P62993 whole entry, looked up): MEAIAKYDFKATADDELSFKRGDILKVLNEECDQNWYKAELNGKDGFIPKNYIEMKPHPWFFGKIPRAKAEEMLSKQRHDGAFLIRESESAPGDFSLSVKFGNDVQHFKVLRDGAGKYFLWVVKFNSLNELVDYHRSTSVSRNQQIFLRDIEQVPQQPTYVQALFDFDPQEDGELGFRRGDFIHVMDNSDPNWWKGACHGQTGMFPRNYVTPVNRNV

Sequence | phosphorylation enrichment (AncSZ) | phosphorylation enrichment (EPHB1) | phosphorylation enrichment (EPHB2) | phosphorylation enrichment (FGFR1) | phosphorylation enrichment (FGFR3) | phosphorylation enrichment (Fer (mouse)) | phosphorylation enrichment (Fes) | phosphorylation enrichment (Fyn) | phosphorylation enrichment (Hck) | phosphorylation enrichment (Jak2) | phosphorylation enrichment (MERTK) | phosphorylation enrichment (c-Abl (mouse)) | phosphorylation enrichment (c-Src) | SH2 binding enrichment (Grb2 SH2) | SH2 binding enrichment (SHP2-C SH2) | SH2 binding enrichment (c-Src SH2)
NREGVYRVFAP [TGFBI_Y537_T538R] | 0.603 | 0.364 | 0.376 | 0.409 | 0.495 | 0.397 | 0.556 | 4.68 | 1.79 | 0.484 | 0.533 | 0.636 | 4.67 | 0.755 | 0.774 | 0.436
NSNAAYEESHF [LRIF1_Y714_Q716E] | 0.849 | 0.483 | 0.499 | 0.443 | 0.614 | 0.504 | 0.919 | 0.434 | 0.496 | 0.87 | 0.385 | 0.659 | 0.475 | 0.792 | 0.608 | 1.23
NSVLVYRNGDP [DCDC2_Y22_K17N] | 0.621 | 0.532 | 0.463 | 0.393 | 0.533 | 0.373 | 0.678 | 0.443 | 0.492 | 0.627 | 0.454 | 0.534 | 0.591 | 0.773 | 0.614 | 0.401
NVADHYGVFKP [ATP6V0D2_Y271_YF] | 0.557 | 0.3 | 0.441 | 0.443 | 0.408 | 0.455 | 0.691 | 4.49 | 3.18 | 0.404 | 0.435 | 0.538 | 4.14 | 1.06 | 0.96 | 0.717
NVVVPYEPPEV [TP53_Y220_S215N] | 1.11 | 0.612 | 0.708 | 0.443 | 0.69 | 0.58 | 1.15 | 0.641 | 0.56 | 1.11 | 0.493 | 0.768 | 0.543 | 0.757 | 0.607 | 0.742
NYSKMYCNPDA [KNL1_Y489_A486S] | 0.794 | 0.536 | 0.45 | 0.483 | 0.521 | 0.435 | 0.914 | 0.396 | 0.469 | 0.819 | 0.414 | 0.566 | 0.349 | 3.18 | 0.819 | 2.63
NYYDLYGGEKF [PTPN11_Y66_D61N] | 1.48 | 10.6 | 12.1 | 13.4 | 11.7 | 2.32 | 1.03 | 5.82 | 5.52 | 1.97 | 7.49 | 0.725 | 4.47 | 1.16 | 0.702 | 1.84
